Here are results for 81 variants from the supplement of paper PMC7125110.

First the molecules themselves.
B1: glmS ribozyme (parent)
chain: AUAAAAGCGCCAGAACUACAGAAAUGUAGUUGACGAGGAGGAGGUUUAUCGAAUUUUCGGCGGAUGCCUCCAAA

± gives the standard error. Fewer inactive variants are shown than the library holds.

The variants in one data set derive from B1. The experiment in a line: self-cleavage kobs at 2500 uM GlcN6P; higher = faster cleavage; RNA array. The conditions noted are these: with glucosamine-6-phosphate. The essentials: (§1)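 kcat and KM were obtained from weighted Michaelis–Menten fits across concentrations of kobs values. Those came from one- or two-exponential decay fits to per-tile medians normalised to baseline and to non-cleaving reference variants. The variants were barcoded ribozymes transcribed in situ by E. coli RNA polymerase on sequenced MiSeq chips and tracked through a hybridised Cy3 probe at 37 °C, with 40 μM to 10 mM glucosamine-6-phosphate in HEPES/KCl/Mg(OAc)2 buffer flowed in.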
Turning to G38U G43A U47C C67U, the “self-cleavage kobs at 2500 uM GlcN6P” value is < 1e-05 s⁻¹.
Still for that read-out and setting: as for C8G G29U A36C A48G C70U, the figure is < 1e-05 s⁻¹; as for C10U C58A C71U, < 1e-05 s⁻¹; as for A14U G51A C58G G60U G63U U65A, < 1e-05 s⁻¹.
Same read-out and setting: as for C8U G37U G62U A64U, the figure is < 1e-05 s⁻¹; as for G41C G43U G59A, < 1e-05 s⁻¹; as for G7U C8U G41C C70G, < 1e-05 s⁻¹.
Still for that read-out and setting: as for C34A G35C A39G G44U C67A C71G, the figure is < 1e-05 s⁻¹.
For the variant G7A C16U U47C C58G, the “self-cleavage kobs at 2500 uM GlcN6P” value was < 1e-05 s⁻¹.
The same measure, in the same setting: the figure for G9U A15C G32C is < 1e-05 s⁻¹.
As to A6U G13U G44C, the “self-cleavage kobs at 2500 uM GlcN6P” value was < 1e-05 s⁻¹.
The same measure, in the same setting: the figure for A6C G38A G62U is < 1e-05 s⁻¹; for U56A G63U it is < 1e-05 s⁻¹; for A6G C61A C71U it is < 1e-05 s⁻¹.
Still for that read-out and setting: as for A6U C50A G51U, the figure is < 1e-05 s⁻¹; as for G13U U31C G44U A64U, < 1e-05 s⁻¹.
Still for that read-out and setting: the figure for A14C A39C C71U is 4.93e-05 ± 1.7e-05 s⁻¹.
Take C10G A36G A52U: the “self-cleavage kobs at 2500 uM GlcN6P” value is < 1e-05 s⁻¹.
Still for that read-out and setting: as for C10U A36C G40U G59U C67G, the figure is < 1e-05 s⁻¹; as for U45A A52U C67A, 8.33e-05 ± 2.5e-05 s⁻¹.
With A33U G51C A53C, the “self-cleavage kobs at 2500 uM GlcN6P” value is < 1e-05 s⁻¹.
As for G13U A42C U47C U57C, the “self-cleavage kobs at 2500 uM GlcN6P” value was < 1e-05 s⁻¹.
On the same count and under the same terms, as for C10U G35C G51U U56G G62U, the figure is < 1e-05 s⁻¹.
G38C G41U A42G: the “self-cleavage kobs at 2500 uM GlcN6P” value is < 1e-05 s⁻¹.
On the same count and under the same terms, as for G32C A53C U65C, the figure is < 1e-05 s⁻¹; as for A6G A42U A48C U54C U69A, < 1e-05 s⁻¹.
Same read-out and setting: the figure for A6U A14G U69G is 0.000146 ± 3.5e-05 s⁻¹; for A14U U47C C61G it is < 1e-05 s⁻¹; for U49A G51A G62U it is < 1e-05 s⁻¹.
Still for that read-out and setting: as for A14U A15G G32U U57G U69A, the figure is 0.000285 ± 0.00012 s⁻¹; as for C11U C16A G44U G60A, < 1e-05 s⁻¹.
For the variant A12G A33G G41C G66A, the “self-cleavage kobs at 2500 uM GlcN6P” value was < 1e-05 s⁻¹.
Still for that read-out and setting: as for G41A C70A, the figure is 0.000253 ± 5.4e-05 s⁻¹.
Still for that read-out and setting: as for G9A C61A A64U C67A, the figure is < 1e-05 s⁻¹; as for G43C A48G, < 1e-05 s⁻¹.
On the same count and under the same terms, as for C10A G29C U55A C70G, the figure is 9.79e-05 ± 2.6e-05 s⁻¹; as for U55A A64C C71U, 7.29e-05 ± 3.2e-05 s⁻¹.
Take G7A A14C U30A: the “self-cleavage kobs at 2500 uM GlcN6P” value was < 1e-05 s⁻¹.
In the case of G7U G35U G37C U46C C68A, the “self-cleavage kobs at 2500 uM GlcN6P” value is < 1e-05 s⁻¹.
Same read-out and setting: the figure for G35C A42U U55A C58G is < 1e-05 s⁻¹; for U49C U55C C70G it is < 1e-05 s⁻¹; for U30G G63C A64U it is < 1e-05 s⁻¹.
In the case of G26U C58U, the “self-cleavage kobs at 2500 uM GlcN6P” value amounted to 6.46e-05 ± 1.7e-05 s⁻¹.
On the same count and under the same terms, as for G41U G44C U55G G59U, the figure is < 1e-05 s⁻¹.
Turning to C8A G13C A36G U56G C70U, the “self-cleavage kobs at 2500 uM GlcN6P” value was < 1e-05 s⁻¹.
Regarding G7A A15G G29A A36G A52G, the “self-cleavage kobs at 2500 uM GlcN6P” value is < 1e-05 s⁻¹.
The same measure, in the same setting: as for G32U U56G G66U, the figure is 6.54e-05 ± 1.6e-05 s⁻¹.
Still for that read-out and setting: as for C8G A52G U55G C67G C68U, the figure is 5.08e-05 ± 1.6e-05 s⁻¹; as for U45A U46A, 0.0043 ± 0.0021 s⁻¹; as for A14C U30C G32A C58G, 7.82e-05 ± 3.2e-05 s⁻¹.
In the case of C10G A14U G32U C61A G63A, the “self-cleavage kobs at 2500 uM GlcN6P” value is < 1e-05 s⁻¹.
On to A12U A15U U47C, for which the “self-cleavage kobs at 2500 uM GlcN6P” value came out at 0.000776 ± 0.00023 s⁻¹.
Same read-out and setting: as for U46G U55C G66A, the figure is 0.00233 ± 0.00084 s⁻¹.
G32C A42G G59U: the “self-cleavage kobs at 2500 uM GlcN6P” value is < 1e-05 s⁻¹.
Still for that read-out and setting: the figure for C16G A39G C71U is 0.0054 ± 0.0016 s⁻¹.
The same measure, in the same setting: as for U31G G38U A42U C67U, the figure is < 1e-05 s⁻¹.
Same read-out and setting: the figure for C34A U49G is < 1e-05 s⁻¹.
Regarding G43U U54A C58U G59C C61G G62C A64G U65A G66U, the “self-cleavage kobs at 2500 uM GlcN6P” value is < 1e-05 s⁻¹.
Same read-out and setting: as for U47A U55C U69C, the figure is 0.000127 ± 4.1e-05 s⁻¹.
The same measure, in the same setting: the figure for A6U U31G A36U is < 1e-05 s⁻¹; for A6C A14G G35A U57A G66C C68U it is < 1e-05 s⁻¹.
The same measure, in the same setting: the figure for A42G U65C is 0.000535 ± 0.00016 s⁻¹.
For A14U G32C U47A, the “self-cleavage kobs at 2500 uM GlcN6P” value was 8.18e-05 ± 1.8e-05 s⁻¹.
In the case of A33C A39G C70A, the “self-cleavage kobs at 2500 uM GlcN6P” value was < 1e-05 s⁻¹.
Same read-out and setting: as for C19A A53C C71A, the figure is 0.000384 ± 0.00012 s⁻¹.
Same read-out and setting: the figure for C8U C10U G13U G29C C58U C61A C67A is 0.000532 ± 0.00015 s⁻¹; for U47G A48U U65G it is 0.000213 ± 5.9e-05 s⁻¹; for G38U C50G G63C it is 7.85e-05 ± 2.7e-05 s⁻¹.
Regarding C11G G37U A53C, the “self-cleavage kobs at 2500 uM GlcN6P” value is < 1e-05 s⁻¹.
The same measure, in the same setting: the figure for G41C G51U U69C is < 1e-05 s⁻¹; for C16U U30C C50A it is < 1e-05 s⁻¹; for C8U G51U U57C C58A it is < 1e-05 s⁻¹.
The same measure, in the same setting: as for C10U G35C G38A A52C G62U, the figure is < 1e-05 s⁻¹; as for G7C G9A A14U C50A, < 1e-05 s⁻¹.
On the same count and under the same terms, as for A6C A48C G51U, the figure is < 1e-05 s⁻¹; as for U47A C68G U69G, 7.59e-05 ± 3.7e-05 s⁻¹.
As to A15G A39U G41A, the “self-cleavage kobs at 2500 uM GlcN6P” value amounted to 0.000369 ± 0.0001 s⁻¹.
On the same count and under the same terms, as for C11A G29U A33C G63C, the figure is < 1e-05 s⁻¹; as for A42U G43U U46A C70U, 6.44e-05 ± 2.4e-05 s⁻¹.
On the same count and under the same terms, the figure for A15G G44U C50U A64U is < 1e-05 s⁻¹; for G13C U30C C71G it is 4.16e-05 ± 2.1e-05 s⁻¹.

The next data set covers variants of B1. The data set can be described thus: self-cleavage kobs at 10000 uM GlcN6P; higher = faster cleavage; RNA array. The conditions noted are these: with glucosamine-6-phosphate. In a few lines:
as §1
Take C10U A36C G40U G59U C67G: the “self-cleavage kobs at 10000 uM GlcN6P” value is < 1e-05 s⁻¹.
On the same count and under the same terms, as for G13U A42C U47C U57C, the figure is < 1e-05 s⁻¹; as for G41A C70A, 0.00019 ± 2.6e-05 s⁻¹.
Still for that read-out and setting: the figure for U30G G63C A64U is < 1e-05 s⁻¹; for G26U C58U it is 7.64e-05 ± 1.4e-05 s⁻¹; for C8G A52G U55G C67G C68U it is 3.18e-05 ± 1.4e-05 s⁻¹.
Take U46G U55C G66A: the “self-cleavage kobs at 10000 uM GlcN6P” value was 0.00269 ± 0.00067 s⁻¹.
Same read-out and setting: as for A6U U31G A36U, the figure is < 1e-05 s⁻¹.
